Measurements published in patent publication US8349797 (dated 2013).
Read-outs that look alike come from different tables or passages of the source. Bridges are numbered along the chain shown (N, C = ends). [ ]: non-standard residue; d: D form. 1Nal = N[C@@H](Cc1cccc2ccccc12)C(=O)O; 2Nal = N[C@@H](Cc1ccc2ccccc2c1)C(=O)O; d2Nal = N[C@H](Cc1ccc2ccccc2c1)C(=O)O; Aib = CC(C)(N)C(=O)O; βAla = NCCC(=O)O

B1: Table 2A compound 15 (peptide)
chain: Ac-CEH[d2Nal]R[1Nal]ACPPKD-NH2
modifications: disulfide 1-8
SMILES: CC(=O)N[C@H]1CSSC[C@@H](C(=O)N2CCC[C@H]2C(=O)N2CCC[C@H]2C(=O)N[C@@H](CCCCN)C(=O)N[C@@H](CC(=O)O)C(N)=O)NC(=O)[C@H](C)NC(=O)[C@H](Cc2cccc3ccccc23)NC(=O)[C@H](CCCNC(=N)N)NC(=O)[C@@H](Cc2ccc3ccccc3c2)NC(=O)[C@H](Cc2c[nH]cn2)NC(=O)[C@H](CCC(=O)O)NC1=O
B2: Table 2B compound 2 (peptide)
chain: Ac-CEH[d2Nal]R[2Nal][Aib]CPPKD-NH2
modifications: disulfide 1-8
SMILES: CC(=O)N[C@H]1CSSC[C@@H](C(=O)N2CCC[C@H]2C(=O)N2CCC[C@H]2C(=O)N[C@@H](CCCCN)C(=O)N[C@@H](CC(=O)O)C(N)=O)NC(=O)C(C)(C)NC(=O)[C@H](Cc2ccc3ccccc3c2)NC(=O)[C@H](CCCNC(=N)N)NC(=O)[C@@H](Cc2ccc3ccccc3c2)NC(=O)[C@H](Cc2c[nH]cn2)NC(=O)[C@H](CCC(=O)O)NC1=O
B3: Table 2B compound 1 (peptide)
chain: Ac-CEH[d2Nal]R[2Nal][βAla]CPPKD-NH2
modifications: disulfide 1-8
SMILES: CC(=O)N[C@H]1CSSC[C@@H](C(=O)N2CCC[C@H]2C(=O)N2CCC[C@H]2C(=O)N[C@@H](CCCCN)C(=O)N[C@@H](CC(=O)O)C(N)=O)NC(=O)CCNC(=O)[C@H](Cc2ccc3ccccc3c2)NC(=O)[C@H](CCCNC(=N)N)NC(=O)[C@@H](Cc2ccc3ccccc3c2)NC(=O)[C@H](Cc2c[nH]cn2)NC(=O)[C@H](CCC(=O)O)NC1=O
B4: Table 2A compound 14 (peptide)
chain: Ac-CEH[d2Nal]R[2Nal]ACPPKD-NH2
modifications: disulfide 1-8
SMILES: CC(=O)N[C@H]1CSSC[C@@H](C(=O)N2CCC[C@H]2C(=O)N2CCC[C@H]2C(=O)N[C@@H](CCCCN)C(=O)N[C@@H](CC(=O)O)C(N)=O)NC(=O)[C@H](C)NC(=O)[C@H](Cc2ccc3ccccc3c2)NC(=O)[C@H](CCCNC(=N)N)NC(=O)[C@@H](Cc2ccc3ccccc3c2)NC(=O)[C@H](Cc2c[nH]cn2)NC(=O)[C@H](CCC(=O)O)NC1=O

Legend:
Test in all cases: competition
hMC5-R [1] = target: T1, hMC5-R (human, UniProt P33032)
T1 sequence (P33032 whole entry): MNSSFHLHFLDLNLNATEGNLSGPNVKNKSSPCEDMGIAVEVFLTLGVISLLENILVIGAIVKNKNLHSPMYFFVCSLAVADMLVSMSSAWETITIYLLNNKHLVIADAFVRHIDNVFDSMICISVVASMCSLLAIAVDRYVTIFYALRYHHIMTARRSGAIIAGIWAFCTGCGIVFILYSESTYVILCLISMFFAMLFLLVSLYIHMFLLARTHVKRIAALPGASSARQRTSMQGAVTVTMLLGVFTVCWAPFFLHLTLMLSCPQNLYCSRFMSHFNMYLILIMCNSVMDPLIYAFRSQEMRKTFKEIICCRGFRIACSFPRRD

hMC1-R [2] = target: T2, hMC1-R (human, UniProt Q01726)
T2 sequence (Q01726 whole entry): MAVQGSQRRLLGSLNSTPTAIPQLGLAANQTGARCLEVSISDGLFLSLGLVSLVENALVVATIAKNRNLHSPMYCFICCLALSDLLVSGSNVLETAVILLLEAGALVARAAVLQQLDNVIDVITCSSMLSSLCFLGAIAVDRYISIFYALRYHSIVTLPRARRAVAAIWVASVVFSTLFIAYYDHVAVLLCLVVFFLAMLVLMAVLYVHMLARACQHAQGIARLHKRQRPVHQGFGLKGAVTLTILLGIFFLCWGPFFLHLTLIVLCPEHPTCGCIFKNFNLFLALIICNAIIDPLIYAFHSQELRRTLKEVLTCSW

hMC4-R [3] = target: T3, hMC4-R (human, UniProt P32245)
T3 sequence (P32245 whole entry): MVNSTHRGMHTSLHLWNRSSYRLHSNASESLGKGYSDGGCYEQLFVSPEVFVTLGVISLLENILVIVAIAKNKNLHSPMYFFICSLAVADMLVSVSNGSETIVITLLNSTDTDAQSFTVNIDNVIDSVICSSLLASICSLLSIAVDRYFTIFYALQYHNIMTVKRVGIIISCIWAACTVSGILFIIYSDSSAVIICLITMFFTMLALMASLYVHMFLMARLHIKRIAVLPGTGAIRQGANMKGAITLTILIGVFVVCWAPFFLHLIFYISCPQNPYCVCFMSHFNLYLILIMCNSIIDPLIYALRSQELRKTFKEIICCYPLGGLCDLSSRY

hMC3-R [4] = target: T4, hMC3-R (human, UniProt P41968)
T4 sequence (P41968 whole entry): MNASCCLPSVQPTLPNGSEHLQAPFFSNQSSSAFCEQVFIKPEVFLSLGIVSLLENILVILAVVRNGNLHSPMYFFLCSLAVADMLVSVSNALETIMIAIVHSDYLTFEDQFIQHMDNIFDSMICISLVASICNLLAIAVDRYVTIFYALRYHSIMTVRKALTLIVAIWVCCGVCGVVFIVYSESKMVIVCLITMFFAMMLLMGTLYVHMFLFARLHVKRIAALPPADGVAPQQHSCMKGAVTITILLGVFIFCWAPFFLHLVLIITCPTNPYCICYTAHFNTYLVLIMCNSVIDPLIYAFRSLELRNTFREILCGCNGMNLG

hMC4-R [5] = target: T3, hMC4-R; remark: listed apart in the source
hMC1-R [6] = target: T2, hMC1-R; remark: listed apart in the source
hMC5-R [7] = target: T1, hMC5-R; remark: listed apart in the source
hMC3-R [8] = target: T4, hMC3-R; remark: listed apart in the source

Row | Binder | Ki (hMC5-R [1]) [nM] | Ki (hMC1-R [2]) [nM] | Ki (hMC4-R [3]) [nM] | Ki (hMC3-R [4]) [nM] | Ki (hMC4-R [5]) [nM] | Ki (hMC1-R [6]) [nM] | Ki (hMC5-R [7]) [nM] | Ki (hMC3-R [8]) [nM]
1 | B1 | 348 | 124 | 1.11 | 17.8 |  |  |  | 
2 | B2 |  |  |  |  | 5.87 | 1820 | 979 | 306
3 | B3 |  |  |  |  | 10.7 | 2060 | 239 | 113
4 | B4 | 359 | 87.8 | 1.2 | 9.08 |  |  |  | 
